Measurements taken from US20220372155A1 (LYVGEN BIOPHARMA, published 2022).

B1: Ly403 (bispecific antibody, human IgG1, kappa)
heavy: EVQLVESGGGVVQPGRSLRLSCSASGFDFTTYWMSWVRQAPGKGLEWIGEIHPDSSTINYAPSLKDRFTISRDNAKNTLFLQMDSLRPEDTGVYFCASLYFGFPWFAYWGQGTPVTVSSASTKGPSVFPLAPSSKSTSGGTAALGCLVKDYFPEPVTVSWNSGALTSGVHTFPAVLQSSGLYSLSSVVTVPSSSLGTQTYICNVNHKPSNTKVDKKVEPKSCDKTHTCPPCPAPELLGPSVFLFPPKPKDTLMISRTPEVTCVVVDVSHEDPEVKFNWYVDGVEVHNAKTKPREEQYNSTYRVVSVLTVLHQDWLNGKEYKCKVSNKALPAPIEKTISKAKGQPREPQVYTLPPSREEMTKNQVSLTCLVKGFYPSDIAVEWESNGQPENNYKTTPPVLDSDGSFFLYSKLTVDKSRWQQGNVFSCSVMHEALHNHYTQKSLSLSPGK
light: DIQLTQSPSSLSASVGDRVTITCKASQDVGTSVAWYQQKPGKAPKLLIYWTSTRHTGVPSRFSGSGSGTDFTFTISSLQPEDIATYYCQQYSLYRSFGQGTKVEIKRTVAAPSVFIFPPSDEQLKSGTASVVCLLNNFYPREAKVQWKVDNALQSGNSQESVTEQDSKDSTYSLSSTLTLSKADYEKHKVYACEVTHQGLSSPVTKSFNRGECGGGGSGGGGSGGGGSGGGGSDIQMTQSPSSLSASVGDRVTITCKASQNIYIYLNWYQQKPGKAPKLLIYNTNNLQTGVPSRFSGSGSGTDFTLTISSLQPEDFATYYCLQHSSRRTFGGGTKVEIKGGGGSGGGGSGGGGSGGGGSQVQLVESGGGLVQPGGSLKLSCATSGFNFNDYFMNWVRQASGKGLEWVGQIRNKNYNYATYYTESLEGRVTISRDDSKNTAYLQMNSLKTEDTAVYYCTSYYYDGFADYFDYWGQGTTVTVSS
notes: Ly311 HC (IgG1 mutated Fc) + Ly311 LC-TM740 scFv VL-VH
B2: Ly404 (bispecific antibody, human IgG1, kappa)
heavy: EVQLVESGGGVVQPGRSLRLSCSASGFDFTTYWMSWVRQAPGKGLEWIGEIHPDSSTINYAPSLKDRFTISRDNAKNTLFLQMDSLRPEDTGVYFCASLYFGFPWFAYWGQGTPVTVSSASTKGPSVFPLAPSSKSTSGGTAALGCLVKDYFPEPVTVSWNSGALTSGVHTFPAVLQSSGLYSLSSVVTVPSSSLGTQTYICNVNHKPSNTKVDKKVEPKSCDKTHTCPPCPAPELLGPSVFLFPPKPKDTLMISRTPEVTCVVVDVSHEDPEVKFNWYVDGVEVHNAKTKPREEQYNSTYRVVSVLTVLHQDWLNGKEYKCKVSNKALPAPIEKTISKAKGQPREPQVYTLPPSREEMTKNQVSLTCLVKGFYPSDIAVEWESNGQPENNYKTTPPVLDSDGSFFLYSKLTVDKSRWQQGNVFSCSVMHEALHNHYTQKSLSLSPGK
light: DIQLTQSPSSLSASVGDRVTITCKASQDVGTSVAWYQQKPGKAPKLLIYWTSTRHTGVPSRFSGSGSGTDFTFTISSLQPEDIATYYCQQYSLYRSFGQGTKVEIKRTVAAPSVFIFPPSDEQLKSGTASVVCLLNNFYPREAKVQWKVDNALQSGNSQESVTEQDSKDSTYSLSSTLTLSKADYEKHKVYACEVTHQGLSSPVTKSFNRGECGGGGSGGGGSGGGGSGGGGSQVQLVESGGGLVQPGGSLKLSCATSGFNFNDYFMNWVRQASGKGLEWVGQIRNKNYNYATYYTESLEGRVTISRDDSKNTAYLQMNSLKTEDTAVYYCTSYYYDGFADYFDYWGQGTTVTVSSGGGGSGGGGSGGGGSGGGGSDIQMTQSPSSLSASVGDRVTITCKASQNIYIYLNWYQQKPGKAPKLLIYNTNNLQTGVPSRFSGSGSGTDFTLTISSLQPEDFATYYCLQHSSRRTFGGGTKVEIK
notes: Ly311 HC (IgG1 mutated Fc) + Ly311 LC-TM740 scFv VH-VL
B3: Ly402 (bispecific antibody, human IgG1, kappa)
heavy: EVQLVESGGGVVQPGRSLRLSCSASGFDFTTYWMSWVRQAPGKGLEWIGEIHPDSSTINYAPSLKDRFTISRDNAKNTLFLQMDSLRPEDTGVYFCASLYFGFPWFAYWGQGTPVTVSSASTKGPSVFPLAPSSKSTSGGTAALGCLVKDYFPEPVTVSWNSGALTSGVHTFPAVLQSSGLYSLSSVVTVPSSSLGTQTYICNVNHKPSNTKVDKKVEPKSCDKTHTCPPCPAPELLGPSVFLFPPKPKDTLMISRTPEVTCVVVDVSHEDPEVKFNWYVDGVEVHNAKTKPREEQYNSTYRVVSVLTVLHQDWLNGKEYKCKVSNKALPAPIEKTISKAKGQPREPQVYTLPPSREEMTKNQVSLTCLVKGFYPSDIAVEWESNGQPENNYKTTPPVLDSDGSFFLYSKLTVDKSRWQQGNVFSCSVMHEALHNHYTQKSLSLSPGGGGGSGGGGSGGGGSGGGGSQVQLVESGGGLVQPGGSLKLSCATSGFNFNDYFMNWVRQASGKGLEWVGQIRNKNYNYATYYTESLEGRVTISRDDSKNTAYLQMNSLKTEDTAVYYCTSYYYDGFADYFDYWGQGTTVTVSSGGGGSGGGGSGGGGSGGGGSDIQMTQSPSSLSASVGDRVTITCKASQNIYIYLNWYQQKPGKAPKLLIYNTNNLQTGVPSRFSGSGSGTDFTLTISSLQPEDFATYYCLQHSSRRTFGGGTKVEIK
light: DIQLTQSPSSLSASVGDRVTITCKASQDVGTSVAWYQQKPGKAPKLLIYWTSTRHTGVPSRFSGSGSGTDFTFTISSLQPEDIATYYCQQYSLYRSFGQGTKVEIKRTVAAPSVFIFPPSDEQLKSGTASVVCLLNNFYPREAKVQWKVDNALQSGNSQESVTEQDSKDSTYSLSSTLTLSKADYEKHKVYACEVTHQGLSSPVTKSFNRGEC
notes: Ly311 HC (IgG1 mutated Fc)-TM740 scFv VH-VL + Ly311 LC
B4: Ly405 (bispecific antibody, human IgG1, kappa)
heavy: EVQLVESGGGLVQPGGSLRLSCAASGFNIKDTYMHWVRQAPGKGLEWVARIDPANGNSKYADSVKGRFTISADTSKNTAYLQMNSLRAEDTAVYYCAPFGYYVSDYAMAYWGQGTLVTVSSASTKGPSVFPLAPSSKSTSGGTAALGCLVKDYFPEPVTVSWNSGALTSGVHTFPAVLQSSGLYSLSSVVTVPSSSLGTQTYICNVNHKPSNTKVDKKVEPKSCDKTHTCPPCPAPELLGPSVFLFPPKPKDTLMISRTPEVTCVVVDVSHEDPEVKFNWYVDGVEVHNAKTKPREEQYNSTYRVVSVLTVLHQDWLNGKEYKCKVSNKALPAPIEKTISKAKGQPREPQVYTLPPSREEMTKNQVSLTCLVKGFYPSDIAVEWESNGQPENNYKTTPPVLDSDGSFFLYSKLTVDKSRWQQGNVFSCSVMHEALHNHYTQKSLSLSPGGGGGSGGGGSGGGGSGGGGSDIQMTQSPSSLSASVGDRVTITCKASQNIYIYLNWYQQKPGKAPKLLIYNTNNLQTGVPSRFSGSGSGTDFTLTISSLQPEDFATYYCLQHSSRRTFGGGTKVEIKGGGGSGGGGSGGGGSGGGGSQVQLVESGGGLVQPGGSLKLSCATSGFNFNDYFMNWVRQASGKGLEWVGQIRNKNYNYATYYTESLEGRVTISRDDSKNTAYLQMNSLKTEDTAVYYCTSYYYDGFADYFDYWGQGTTVTVSS
light: DIQLTQSPSSLSASVGDRVTITCRAGESVDIFGVGFLHWYQQKPGKAPKLLIYRASNLESGVPSRFSGSGSRTDFTLTISSLQPEDFATYYCQQTNEDPYTFGQGTKVEIKRTVAAPSVFIFPPSDEQLKSGTASVVCLLNNFYPREAKVQWKVDNALQSGNSQESVTEQDSKDSTYSLSSTLTLSKADYEKHKVYACEVTHQGLSSPVTKSFNRGEC
notes: Ly312 HC (IgG1 mutated Fc)-TM740 scFv VL-VH + Ly312 LC

Each binder was assayed against T1, human CD40 expressed on CHO cells (human, UniProt P25942 21-277) (assay: FACS, CHO cells).
T1 construct: whole, on cells; also used for the reporter cells over-expressing human CD40; also called cellular CD40; CHO-CD40 cells
T1 sequence (P25942 21-277): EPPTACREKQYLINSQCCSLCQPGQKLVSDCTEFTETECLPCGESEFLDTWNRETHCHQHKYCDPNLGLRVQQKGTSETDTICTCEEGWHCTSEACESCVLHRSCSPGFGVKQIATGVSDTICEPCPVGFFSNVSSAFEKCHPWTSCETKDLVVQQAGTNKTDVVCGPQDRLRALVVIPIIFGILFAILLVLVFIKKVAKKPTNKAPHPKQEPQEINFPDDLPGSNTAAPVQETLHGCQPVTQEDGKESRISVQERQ

Binding result, binds:
B1, B2, B3, B4
